Experimental data as given in IntAct's records for PubMed 19716822.

Biological target: srk2e_arath SRK2E (UniProt Q940H6)
Sequence (Q940H6 whole entry): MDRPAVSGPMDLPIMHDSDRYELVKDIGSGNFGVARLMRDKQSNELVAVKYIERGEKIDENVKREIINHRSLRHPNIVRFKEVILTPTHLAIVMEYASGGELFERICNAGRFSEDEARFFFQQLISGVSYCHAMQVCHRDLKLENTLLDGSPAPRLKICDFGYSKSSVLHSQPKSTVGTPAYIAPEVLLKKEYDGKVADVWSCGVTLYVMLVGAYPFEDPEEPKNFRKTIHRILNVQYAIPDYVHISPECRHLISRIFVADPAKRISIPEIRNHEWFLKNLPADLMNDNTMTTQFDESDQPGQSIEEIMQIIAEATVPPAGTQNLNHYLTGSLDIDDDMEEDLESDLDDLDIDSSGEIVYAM

“Respiratory burst oxidase homolog protein F (Arabidopsis thaliana (Mouse-ear cress)), O48538 S174A” was tested, and the “effect of a mutation on the interaction” value was “decreasing interaction”.
